Values quoted from earlier work as cited in article PMC11820047.
pKd: −log10 of the molar value. Read-outs that look alike come from different tables or passages of the source.

Experiments:
EGFR (Homo sapiens) [1] = biological target: EGFR (Homo sapiens) (UniProt P00533)
EGFR (Homo sapiens) [2] = biological target: EGFR (Homo sapiens) (UniProt P00533); remark: listed apart in the source

| Substance | pKd (EGFR (Homo sapiens) [1]) | pKd (EGFR (Homo sapiens) [2]) |
| --- | --- | --- |
| EGF (from UniProt P01133) | 8.70 | – |
| GE11 | – | 7.66 |
